{"source": "paper PMC3267858", "about": "(Nature, 2012)", "proteins": {"B1": {"name": "C-linker/CNBHD of zebrafish ELK channel (amino acids Q543-L750) (domain or fragment, Danio rerio (zebrafish), UniProt A8WHX9 543-750, looked up)", "chain": "QRMYSRRSLYHTRTKDLKDFIRVHRLPKALAQRMLECFQTTWSVNNGIDVSELLKDFPDELRADIAMHLNKELLQLPLFESASRGCLRSLSLIIKTSFCAPGEFLIRQGDALQAIYFVCSGSMEVLKDNTVLAILGKGDLIGSDSLTKEQVIKTNANVKALTYCDLQYISLKGLREVLRLYPEYAQKFVSEIQHDLTYNLREGSGADL"}, "B2": {"name": "GFP-tagged C-linker/CNBHD of zELK channels (amino acids Q543-L750) (domain or fragment, Danio rerio (zebrafish), UniProt A8WHX9 543-750, looked up)", "chain": "QRMYSRRSLYHTRTKDLKDFIRVHRLPKALAQRMLECFQTTWSVNNGIDVSELLKDFPDELRADIAMHLNKELLQLPLFESASRGCLRSLSLIIKTSFCAPGEFLIRQGDALQAIYFVCSGSMEVLKDNTVLAILGKGDLIGSDSLTKEQVIKTNANVKALTYCDLQYISLKGLREVLRLYPEYAQKFVSEIQHDLTYNLREGSGADL"}}, "key": {"crystal structure": {"biological_target": "the molecule itself", "test": "crystal structure"}, "SEC": {"biological_target": "the molecule itself", "test": "SEC"}}, "data": [{"protein": "B1", "values": [{"measurement": "stoichiometry N", "setting": "crystal structure", "value": 2}]}, {"protein": "B2", "values": [{"measurement": "stoichiometry N", "setting": "SEC", "value": 2}]}]}
